Experimental data published in patent US20240131155A1, “T CELLS FOR USE IN THERAPY” (Erasmus University Medical Center Rotterdam, priority 2021, published 2024).
Values belong to the binder of their own block, whether it stands above or below them.

Columns and labels:
[1] = biological target: T1, ROPN1B peptide on HLA-A*02:01 (human); test: multimer staining
T1 peptide: MLNYIEQEV

[2] = biological target: T2, ROPN1B epitope 1 (MLN) with alanine at position 8 peptide on HLA-A*02:01 (human); test: cytokine release
T2 peptide: MLNYIEQAV

[3] = biological target: T3, ROPN1B epitope 1 (MLN) with alanine at position 9 peptide on HLA-A*02:01 (human); test: cytokine release
T3 peptide: MLNYIEQEA

[4] = biological target: T4, ROPN1B epitope 1 (MLN) with alanine at position 6 peptide on HLA-A*02:01 (human); test: cytokine release
T4 peptide: MLNYIAQEV

[5] = biological target: T5, ROPN1 (counterpart of the ROPN1B MLN epitope, one residue different) peptide on HLA-A*02:01 (human); test: cytokine release
T5 peptide: MLNYMEQEV

[6] = biological target: T6, gp100 peptide on HLA-A*02:01 (human); test: cytokine release
T6 peptide: YLEPGPVTA

[7] = biological target: T7, HLA-A2 (HLA-A2:01) on T2 cells (human); test: HLA-A2 stabilization assay on T2 cells, peptide titration; amplitude = highest data point corrected for baseline [panel E]
T7 construct: detected with anti-HLA-A2 mAb BB7.2

[8] = biological target: T7, HLA-A2 (HLA-A2:01) on T2 cells; test: HLA-A2 stabilization assay on T2 cells, peptide titration; EC50 calculated with GraphPad [panel D]
[9] = biological target: T7, HLA-A2 (HLA-A2:01) on T2 cells; test: HLA-A2 stabilization assay on T2 cells, peptide titration; EC50 calculated with GraphPad [panel E]
[10] = biological target: T7, HLA-A2 (HLA-A2:01) on T2 cells; test: HLA-A2 stabilization assay on T2 cells, peptide titration; amplitude relative to that of reference peptide YLE [panel D]
[11] = biological target: T7, HLA-A2 (HLA-A2:01) on T2 cells; test: HLA-A2 stabilization assay on T2 cells (anti-HLA-A2-PE, flow cytometry), single peptide concentration 25 ug/mL [panel E]
[12] = biological target: T7, HLA-A2 (HLA-A2:01) on T2 cells; test: HLA-A2 stabilization assay on T2 cells (anti-HLA-A2-PE, flow cytometry), single peptide concentration [panel D]
[13] = biological target: T7, HLA-A2 (HLA-A2:01) on T2 cells; test: HLA-A2 stabilization assay on T2 cells (anti-HLA-A2-PE, flow cytometry), single peptide concentration [panel C; D00007 Figure 3 continued, panel E]
[14] = biological target: T7, HLA-A2 (HLA-A2:01) on T2 cells; test: HLA-A2 stabilization assay on T2 cells, peptide titration; amplitude relative to that of reference peptide YLE; EC50 cell is 'x' [panel D]
[15] = biological target: MLN epitope (…) presented by HLA-A2 on cells (human); test: cell-based or functional assay

binding result [1]: recognises | binding result [2]: recognises | binding result [3]: recognises | binding result [4]: recognises | binding result [5]: no recognition | binding result [6]: no recognition
B1: MLN-TCR2 (TCR, V domains shown)
Valpha: GEDVEQSLFLSVREGDSSVINCTYTDSSSTYLYWYKQEPGAGLQLLTYIFSNMDMKQDQRLTVLLNKKDKHLSLRIADTQTGDSAIYFCAEDGGGSYIPTFGRGTSLIVHP
Vbeta: EAGVTQFPSHSVIEKGQTVTLRCDPISGHDNLYWYRRVMGKEIKFLLHFVKESKQDESGMPNNRFLAERTGGTYSTLKVQPAELEDSGVYFCASSPGPGQNSPLHFGNGTRLTVT

Minimum stability [11]: 1.16 fold change over baseline | Amplitude [14]: 0.939 relative to YLE | Minimum stability [12]: 1.41 fold change over baseline
B4: YIAEVDGEI (peptide)
peptide: YIAEVDGEI
notes: ROPN1B, predicted

The next lines start with the binder.

B2: NY-ESO1 peptide SLLMWITQV (peptide)
peptide: SLLMWITQV
notes: also called NY-ESO peptide SLL
Amplitude [7]: 4220 geometric mean normalized to baseline | EC50 [8]: 5.08 µM | EC50 [9]: 5.08 µM | Amplitude [10]: 0.93 relative to YLE

B3: RLIIRAEEL (peptide)
peptide: RLIIRAEEL
notes: ROPN1 and ROPN1B, predicted
Minimum stability [11]: 0.91 fold change over baseline | Minimum stability [12]: 0.91 fold change over baseline | binding result [13]: no binding (tested: 25 ug/mL)

B5: MLN-TCR2 (epitope 1 (MLN)-specific TCR) (TCR, V domains shown)
V domain 1: RGEDVEQSLFLSVREGDSSVINCTYTDSSSTYLYWYKQEPGAGLQLLTYIFSNMDMKQDQRLTVLLNKKDKHLSLRIADTQTGDSAIYFCAEDGGGSYIPTFGRGTSLIVHP
V domain 2: EAGVTQFPSHSVIEKGQTVTLRCDPISGHDNLYWYRRVMGKEIKFLLHFVKESKQDESGMPNNRFLAERTGGTYSTLKVQPAELEDSGVYFCASSPGPGQNSPLHFGNGTRLTVTE
EC50 of T cell IFN-gamma production, peptide titration on BSM cells [15]: 0.011 µM
